The target in experiment [1] is T1, human TL1A, soluble, CHO-expressed, residues 72-251 of SEQ ID NO:244 with N-terminal His6-tag (human, UniProt O95150 72-251).
T1 sequence: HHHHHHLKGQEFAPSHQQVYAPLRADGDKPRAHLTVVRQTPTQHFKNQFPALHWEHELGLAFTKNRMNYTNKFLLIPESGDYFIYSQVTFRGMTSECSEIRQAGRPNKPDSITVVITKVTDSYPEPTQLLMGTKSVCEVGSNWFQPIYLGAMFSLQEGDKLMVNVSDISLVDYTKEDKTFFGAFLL
Nature of the experiment: cell-based or functional assay.

Experiment [2] addresses T2, cynomolgus monkey TL1A, soluble, CHO-expressed, residues 72-251 of SEQ ID NO:248 with N-terminal His6-tag (cynomolgus monkey (Macaca fascicularis), UniProt O95150 72-251 (human entry)).
T2 construct: also called MfTL1A; MfTL1A (CHO)
T2 chain: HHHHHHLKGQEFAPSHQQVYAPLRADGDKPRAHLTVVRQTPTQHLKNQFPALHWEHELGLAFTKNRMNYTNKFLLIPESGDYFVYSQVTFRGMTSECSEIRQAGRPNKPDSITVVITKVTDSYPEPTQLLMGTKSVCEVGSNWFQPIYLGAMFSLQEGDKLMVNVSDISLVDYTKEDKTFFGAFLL
Nature of the experiment: ELISA, blocks MfTL1A (50 pM) binding hDcR3-Fc. On the procedure:
(§1) The ability of antibodies to block human TL1A binding to its cognate receptors, the DR3 and DcR3 receptors, was measured using a competition sandwich ELISA. In addition, blocking of a human TL1A variant FHM (human TL1A Q167R) and the cynomolgus monkey (Macaca fascicularis) TL1A (MfTL1A) protein binding to the human DR3 or DcR3 receptors was measured in the same manner. Constant amounts of biotinylated human TL1A or FHM (both expressed with a 6-His tag in CHO cells) or biotinylated MfTL1A (expressed in CHO cells) were separately titrated with varying amounts of antibodies. The antibody-protein complexes were incubated in solution (1 hr, 25° C.) and then transferred to microtiter plates coated with human DR3 (hDR3) or human DcR3 (hDcR3) expressed as human IgG1 Fc fusion proteins. After one hour at 25° C. the wells were washed, and bound human or monkey TL1A was detected with streptavidin conjugated with horseradish peroxidase (HRP). Wells were developed with a TMB solution to produce a colorimetric reaction and quenched with aqueous sulfuric acid before reading absorbance at 450 nm on a Perkin-Elmer Victor X5 plate reader. A sigmoidal dose-response curve was fit to the data using the Prism™ data analysis package. […] Both fully human anti-hTL1A mAbs and comparator antibodies, i.e., control mAb1 (an anti-hTL1A antibody with heavy and light chain variable domains having the amino acid sequences corresponding to SEQ ID NOS:21 and 27, respectively, of US 2009/0280116) and control mAb3 (an anti-hTL1A antibody with heavy and light chain variable domains having the amino acid sequences corresponding to SEQ ID NOS:57 and 48, respectively, of US 2009/0280116), were included in the study. NB: No binding under the conditions tested; NT: Not tested. Concentrations of biotinylated soluble ligands: (1) 150 pM; (2) 500 pM; (3) 10 pM; and (4) 50 pM.
Background: In an ELISA, binding on a coated surface is turned into a signal by an enzyme label.

Experiment [3] concerns the target T2, cynomolgus monkey TL1A, soluble, …. Nature of the experiment: ELISA, blocks MfTL1A (500 pM) binding hDR3-Fc. On the procedure:
as §1

Experiment [4] deals with T1, human TL1A, soluble, CHO-expressed, …. Nature of the experiment: cell-based or functional assay. This is another data set of the same source.
For experiment [5], the target named is T3, human TL1A, soluble, E. coli-expressed, residues 72-251 of SEQ ID NO:244 (human, UniProt O95150 72-251).
T3 sequence: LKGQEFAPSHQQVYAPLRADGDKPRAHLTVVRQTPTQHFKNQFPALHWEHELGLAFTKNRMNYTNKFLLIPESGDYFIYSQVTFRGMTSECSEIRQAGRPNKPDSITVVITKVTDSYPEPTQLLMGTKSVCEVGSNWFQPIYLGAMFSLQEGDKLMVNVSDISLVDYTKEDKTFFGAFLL
Nature of the experiment: cell-based or functional assay.

Experiment [6] concerns the target T2, cynomolgus monkey TL1A, soluble, …. Nature of the experiment: cell-based or functional assay.
Experiment [7] addresses T4, cynomolgus monkey TL1A, soluble, E. coli-expressed, residues 72-251 of SEQ ID NO:248 (cynomolgus monkey (Macaca fascicularis), UniProt O95150 72-251 (human entry)).
T4 chain: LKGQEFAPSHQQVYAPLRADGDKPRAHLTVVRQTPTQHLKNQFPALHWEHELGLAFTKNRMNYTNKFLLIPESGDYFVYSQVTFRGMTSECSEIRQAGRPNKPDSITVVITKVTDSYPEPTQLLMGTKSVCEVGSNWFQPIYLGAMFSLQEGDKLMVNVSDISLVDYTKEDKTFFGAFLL
Nature of the experiment: cell-based or functional assay.

Experiment [8] deals with T1, human TL1A, soluble, CHO-expressed, …. Nature of the experiment: ELISA, blocks hTL1A (150 pM) binding hDR3-Fc. On the procedure: as §1
For experiment [9] the target is unchanged. Nature of the experiment: ELISA, blocks hTL1A (10 pM) binding hDcR3-Fc. The method, then:
as §1

The source of these data is patent publication US20140120109A1 (Regeneron, published 2014).

B1: H4H1752P (antibody, human IgG4 S228P, V domains shown)
VH: EVQLVESGGGLVQPGGSLRLSCSASGFTFSKYVMTWVRQAPGKGLEWVSAIGPTGRTTEYADSVQGRFTISRDNSMNTVFLHLNSLTAEDTAEYYCAKMFDWNYDVYFDSWGQGTLVTVSS
VL: DIQMTQSPSILSASVGDRVTITCRTSQSISNWLAWYQQKPGKAPNLLIYKASSLESGVPSRFSGSGSGTEFTLTISSLQPDDFATYYCQQYYRYWTFGQGTKVEIK
As a reminder, the IC50 is the concentration that gives 50% inhibition. Take B1: in [1], the “Average % Blocking IFN-g, 3 ug/ml mAb” value is 71%. The IC50 in experiment [2] turned out to be 0.056 nM; in experiment [3] it was 0.11 nM; in experiment [8], 0.104 nM; in experiment [9], 0.031 nM. In addition, the “IC50, NFkB-luciferase reporter” value turned out to be 0.36 nM in experiment [4], 0.21 nM in experiment [5], 0.12 nM in experiment [6] and 0.05 nM in experiment [7].

B2: H4H1818N (antibody, human IgG4 S228P, V domains shown)
VH: RLQLVESGGGLVKPGGSLKLSCAASGFTISDYYMSWIRQAPGKGLEWVSYIGGSGSTIYYADSVKGRFTISRDNAKNSLYLQMNSLRAEDTAVYYCAREDADSYYYYGMDVWGQGTTVTVSS
VL: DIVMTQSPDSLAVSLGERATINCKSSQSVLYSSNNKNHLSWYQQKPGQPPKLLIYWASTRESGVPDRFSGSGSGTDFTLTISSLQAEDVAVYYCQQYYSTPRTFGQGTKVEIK
notes: human IgG4(S108P) form of H2M1818N
As for B2, in experiment [1], the “Average % Blocking IFN-g, 3 ug/ml mAb” value worked out at 71%. The IC50 was 1.1 nM in experiment [2], 0.123 nM in experiment [3], 0.119 nM in experiment [8] and 0.232 nM in experiment [9]. For the same molecule, the “IC50, NFkB-luciferase reporter” value in experiment [4] amounted to 0.37 nM; in experiment [5] it was 0.29 nM; in experiment [6] it was 0.13 nM; in experiment [7], 0.06 nM.

B3: H4H1750P (antibody, human IgG4 S228P, V domains shown)
VH: QVQLVESGGGVVQPGRSLRLSCVASGFTFSNYGMHWVRQAPGKGLEWVAVISYDGNNDLYSDSVKGRFTISRDNAKNALSLQMTSLRAEDTAVYYCARDSTMTPYYYHGIDVWGQGTTVTVSA
VL: DIQMTQSPSSLSASVGDRVTITCRASQDIRNDLGWYQQKPGKAPKRLIYAASSLQSGVPSRFSGSGSGTDFTLTISSLQPEDFATYYCLQHNSYPPTFGQGTKVEIK
As to B3, the “Average % Blocking IFN-g, 3 ug/ml mAb” value in experiment [1] is 89%. For the same molecule, the “IC50, NFkB-luciferase reporter” value in [4] stood at 0.9 nM; in [5], 2.17 nM; in experiment [6], 155 nM; in [7], 32.5 nM. For the same molecule, the IC50 in experiment [8] was 0.341 nM; in experiment [9] it was 0.656 nM.

B4: H4H1704N (antibody, human IgG4 S228P, V domains shown)
VH: EVQLVESGGGLVQPGGSLRLSCAVSGFTFSSYWMSWVRQAPGKGLEWVANIKEDGSEKNYVDSVKGRFTLSSDNAKNSLYLQMNSLRAEDTAVYYCAREDYDSYYKYGMDVWGQGTAVIVSS
VL: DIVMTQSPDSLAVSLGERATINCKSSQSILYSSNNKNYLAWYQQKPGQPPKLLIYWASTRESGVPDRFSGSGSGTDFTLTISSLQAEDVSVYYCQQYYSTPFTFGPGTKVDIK
notes: human IgG4(S108P) form of H2M1704N
With B4, the “Average % Blocking IFN-g, 3 ug/ml mAb” value in experiment [1] is 98%. Besides, the IC50 in experiment [2] was determined as 0.11 nM; in [3], 0.042 nM; in [8], 0.03 nM; in experiment [9] it was 0.077 nM. Further, the “IC50, NFkB-luciferase reporter” value worked out at 0.13 nM in [4], 0.06 nM in experiment [5], 0.01 nM in experiment [6] and 0.03 nM in experiment [7].

B5: H4H1681N (antibody, human IgG4 S228P, V domains shown)
VH: EVQLLESGGGLVQPGKSLRLSCAVSGFTFSTYGMNWVRQAPGKGLEWVSSISGTGRTTYHADSVQGRFTVSRDNSKNILYLQMNSLRADDTAVYFCTKERGDYYYGVFDYWGQGTLVTVSS
VL: DIQMTQSPSTLSASVGDRVTITCRASQTISSWLAWYQQTPEKAPKLLIYAASNLQSGVPSRFSGSGSGTEFTLTISSLQPDDFATYYCQQYHRSWTFGQGTKVEIT
With B5, the “Average % Blocking IFN-g, 3 ug/ml mAb” value in experiment [1] turned out to be 95%. Moreover, the IC50 was determined as 0.093 nM in experiment [2], 0.141 nM in experiment [3], 0.06 nM in experiment [8] and 0.017 nM in experiment [9]. Further, the “IC50, NFkB-luciferase reporter” value was 0.17 nM in [4], 0.02 nM in [5], 0.03 nM in experiment [6] and 0.02 nM in [7].

B6: H4H1817N (antibody, human IgG4 S228P, V domains shown)
VH: QVQLQQWGAGLLKPSETLSLTCAVSGGSFSDYFWTWIRQPPGKGLEWIGEISHSGRTNYNPSLKSRVTISVDTSMSQFSLKMTSVTAADSAVYYCARDYPNWVFDYWGQGTLVTVSS
VL: EIELTQSPGTLSLSPGEGATLSCRASQSVFNSYLAWYQQKPGQAPRLLIYGASRRATGIPDRFSGSGSGTDFTLTISRLEPGDFAVYFCQQYGNSPLTFGGGTKVEIK
notes: human IgG4(S108P) form of H2M1817N
Consider B6, for which, in experiment [1], the “Average % Blocking IFN-g, 3 ug/ml mAb” value was found to be 98%. Also, the IC50 in [2] stood at 0.322 nM; in experiment [3], 0.101 nM; in [8] it was 0.114 nM; in experiment [9], 0.27 nM. Besides, the “IC50, NFkB-luciferase reporter” value in experiment [4] worked out at 0.11 nM; in [5], 0.04 nM; in [6] it was 0.04 nM; in [7] it was 0.02 nM.

B7: H4H1804N (antibody, human IgG4 S228P, V domains shown)
VH: QVQLHQWGAGLLKPSETLSLTCAVSGVSFSDYHWAWIRQSPGKGLEWIGDINHRGRTNYNPSLKSRVTISLDTSGNPFSLKLTSVTAADTAVYYCARDFPNWVFDSWGQGILVTVSS
VL: EIVLSQSPGTLSLSPGERATLSCRASQSVSSSFLAWYQQYPGQAPRLLIYGASRRATGIPDRFRGSGSGTDFTLTISRLEPEDFAVYYCQQYGSSPLTFGGGTKVENK
notes: human IgG4(S108P) form of H2M1804N
In the case of B7, the “Average % Blocking IFN-g, 3 ug/ml mAb” value in [1] came to 98%. In addition, the IC50 in [2] was 0.034 nM; in experiment [3], 0.071 nM; in experiment [8] it was 0.04 nM; in [9], 0.175 nM. Also, the “IC50, NFkB-luciferase reporter” value in experiment [4] turned out to be 0.07 nM; in experiment [5], 0.03 nM; in experiment [6] it was 0.03 nM; in [7], 0.02 nM.

B8: H4H1805N (antibody, human IgG4 S228P, V domains shown)
VH: QVQLQQWGAGLLKPSETLSLTCAVYGGSFTGFYWSWIRQPPGKGLEWIGEINHRGNTNYNPSLKSRVTMSVDTSKNQFSLNMISVTAADTAMYFCASPFYDFWSGSDYWGQGTLVTVSS
VL: DIMLTQTPLTSPVTLGQPASISCKSSQSLVHSDGNTYLSWLQQRPGQPPRLLFYKISNRFSGVPDRFSGSGAGTDFTLKISRVEAEDVGVYYCMQATQFPLTFGGGTKVEIK
notes: human IgG4(S108P) form of H2M1805N
For B8, the “Average % Blocking IFN-g, 3 ug/ml mAb” value in experiment [1] stood at 94%. The IC50 worked out at 0.313 nM in [2], 0.026 nM in experiment [3], 0.014 nM in [8] and 0.033 nM in experiment [9]. Also, the “IC50, NFkB-luciferase reporter” value was found to be 0.1 nM in experiment [4], 0.04 nM in experiment [5], 0.03 nM in experiment [6] and 0.02 nM in experiment [7].
